Test results from patent publication US20140274782A1, “AFFINITY REAGENTS AND METHODS FOR DETECTION, PURIFICATION, AND PROTEOMIC ANALYSIS OF METHYLATED PROTEINS” (The Board of Trustees of the Leland Stanford Junior …, priority 2013, published 2014).

T1: G9a and GLP (Homo sapiens, UniProt Q96KQ7+Q9H9B1)
T1 sequence (Q96KQ7 2-1210 limits assumed): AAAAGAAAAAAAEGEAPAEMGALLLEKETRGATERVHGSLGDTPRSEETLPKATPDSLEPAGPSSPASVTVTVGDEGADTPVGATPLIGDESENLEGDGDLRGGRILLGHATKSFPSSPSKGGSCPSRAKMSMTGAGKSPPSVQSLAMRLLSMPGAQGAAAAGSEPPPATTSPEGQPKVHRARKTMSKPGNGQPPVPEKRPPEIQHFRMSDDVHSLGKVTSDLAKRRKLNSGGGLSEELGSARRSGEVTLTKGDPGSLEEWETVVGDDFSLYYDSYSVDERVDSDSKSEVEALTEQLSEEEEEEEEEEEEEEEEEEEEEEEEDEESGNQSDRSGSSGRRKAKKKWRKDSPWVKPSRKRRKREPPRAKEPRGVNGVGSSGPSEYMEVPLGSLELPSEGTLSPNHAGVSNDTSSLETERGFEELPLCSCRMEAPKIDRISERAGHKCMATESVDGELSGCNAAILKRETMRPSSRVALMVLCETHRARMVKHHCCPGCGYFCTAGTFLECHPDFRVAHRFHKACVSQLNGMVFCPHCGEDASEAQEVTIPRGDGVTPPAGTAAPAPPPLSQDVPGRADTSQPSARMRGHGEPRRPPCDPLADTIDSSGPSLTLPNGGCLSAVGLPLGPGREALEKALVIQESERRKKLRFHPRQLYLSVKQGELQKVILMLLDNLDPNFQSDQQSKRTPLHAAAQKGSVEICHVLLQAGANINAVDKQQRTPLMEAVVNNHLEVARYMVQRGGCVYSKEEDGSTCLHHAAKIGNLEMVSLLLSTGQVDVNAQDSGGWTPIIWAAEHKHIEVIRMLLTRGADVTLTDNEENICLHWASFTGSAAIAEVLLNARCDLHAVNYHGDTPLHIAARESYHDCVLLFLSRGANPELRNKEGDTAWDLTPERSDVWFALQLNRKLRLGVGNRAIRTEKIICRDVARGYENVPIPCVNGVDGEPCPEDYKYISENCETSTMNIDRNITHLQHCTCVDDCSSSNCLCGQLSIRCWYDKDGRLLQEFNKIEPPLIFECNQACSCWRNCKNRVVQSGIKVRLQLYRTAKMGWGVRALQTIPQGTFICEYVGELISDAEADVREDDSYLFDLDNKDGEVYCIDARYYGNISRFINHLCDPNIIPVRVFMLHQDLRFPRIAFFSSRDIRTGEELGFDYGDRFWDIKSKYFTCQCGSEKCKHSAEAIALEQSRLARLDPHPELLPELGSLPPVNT
T1 sequence (Q9H9B1 2-1298 limits assumed): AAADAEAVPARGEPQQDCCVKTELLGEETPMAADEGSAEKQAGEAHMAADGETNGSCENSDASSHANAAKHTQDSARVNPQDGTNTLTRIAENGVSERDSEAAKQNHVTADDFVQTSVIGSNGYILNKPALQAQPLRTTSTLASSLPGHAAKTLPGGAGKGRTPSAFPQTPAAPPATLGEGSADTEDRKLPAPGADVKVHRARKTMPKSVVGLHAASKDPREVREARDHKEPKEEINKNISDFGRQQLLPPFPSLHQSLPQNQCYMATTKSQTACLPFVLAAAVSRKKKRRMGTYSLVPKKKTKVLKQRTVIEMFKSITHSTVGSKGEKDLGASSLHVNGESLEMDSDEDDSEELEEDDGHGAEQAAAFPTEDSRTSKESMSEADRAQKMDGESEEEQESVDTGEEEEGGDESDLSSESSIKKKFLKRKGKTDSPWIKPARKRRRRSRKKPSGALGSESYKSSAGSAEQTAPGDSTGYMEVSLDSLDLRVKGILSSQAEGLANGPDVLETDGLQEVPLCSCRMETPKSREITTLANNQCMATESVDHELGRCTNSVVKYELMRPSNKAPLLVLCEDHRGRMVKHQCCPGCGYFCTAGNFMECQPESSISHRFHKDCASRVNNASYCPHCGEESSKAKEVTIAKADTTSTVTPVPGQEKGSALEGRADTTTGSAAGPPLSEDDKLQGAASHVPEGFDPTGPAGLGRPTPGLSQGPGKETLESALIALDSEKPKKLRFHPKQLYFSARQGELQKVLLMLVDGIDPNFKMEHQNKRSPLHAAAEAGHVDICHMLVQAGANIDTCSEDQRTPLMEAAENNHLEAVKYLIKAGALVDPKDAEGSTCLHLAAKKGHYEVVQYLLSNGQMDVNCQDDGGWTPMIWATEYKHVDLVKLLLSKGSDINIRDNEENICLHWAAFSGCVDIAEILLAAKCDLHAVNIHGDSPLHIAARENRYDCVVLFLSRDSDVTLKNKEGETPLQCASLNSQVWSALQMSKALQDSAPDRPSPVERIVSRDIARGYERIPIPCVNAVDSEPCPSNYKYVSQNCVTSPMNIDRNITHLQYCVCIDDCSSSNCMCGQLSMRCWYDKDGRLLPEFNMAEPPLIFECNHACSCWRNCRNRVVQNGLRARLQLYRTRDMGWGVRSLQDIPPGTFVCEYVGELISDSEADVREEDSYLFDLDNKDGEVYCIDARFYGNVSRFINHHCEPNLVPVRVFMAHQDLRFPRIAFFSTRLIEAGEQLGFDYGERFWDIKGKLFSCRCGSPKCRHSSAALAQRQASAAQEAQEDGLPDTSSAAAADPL

B1: CGGBP1 (protein, UniProt Q9UFW8 1-167, looked up)
CGG triplet repeat-binding …: MERFVVTAPPARNRSKTALYVTPLDRVTEFGGELHEDGGKLFCTSCNVVLNHVRKSAISDHLKSKTHTKRKAEFEEQNVRKKQRPLTASLQCNSTAQTEKVSVIQDFVKMCLEANIPLEKADHPAVRAFLSRHVKNGGSIPKSDQLRRAYLPDGYENENQLLNSQDC
B2: RPRD1A (protein, UniProt Q96P16 2-312, looked up)
Regulation of nuclear …: SAFSEAALEKKLSELSNSQQSVQTLSLWLIHHRKHSRPIVTVWERELRKAKPNRKLTFLYLANDVIQNSKRKGPEFTKDFAPVIVEAFKHVSSETDESCKKHLGRVLSIWEERSVYENDVLEQLKQALYGDKKPRKRTYEQIKVDENENCSSLGSPSEPPQTLDLVRALQDLENAASGDAAVHQRIASLPVEVQEVSLLDKITDKESGERLSKMVEDACMLLADYNGRLAAEIDDRKQLTRMLADFLRCQKEALAEKEHKLEEYKRKLARVSLVRKELRSRIQSLPDLSRLPNVTGSHMHLPFAGDIYSED
B3: MRE11A (protein, UniProt P49959 2-708, looked up)
Double-strand break repair …: STADALDDENTFKILVATDIHLGFMEKDAVRGNDTFVTLDEILRLAQENEVDFILLGGDLFHENKPSRKTLHTCLELLRKYCMGDRPVQFEILSDQSVNFGFSKFPWVNYQDGNLNISIPVFSIHGNHDDPTGADALCALDILSCAGFVNHFGRSMSVEKIDISPVLLQKGSTKIALYGLGSIPDERLYRMFVNKKVTMLRPKEDENSWFNLFVIHQNRSKHGSTNFIPEQFLDDFIDLVIWGHEHECKIAPTKNEQQLFYISQPGSSVVTSLSPGEAVKKHVGLLRIKGRKMNMHKIPLHTVRQFFMEDIVLANHPDIFNPDNPKVTQAIQSFCLEKIEEMLENAERERLGNSHQPEKPLVRLRVDYSGGFEPFSVLRFSQKFVDRVANPKDIIHFFRHREQKEKTGEEINFGKLITKPSEGTTLRVEDLVKQYFQTAEKNVQLSLLTERGMGEAVQEFVDKEEKDAIEELVKYQLEKTQRFLKERHIDALEDKIDEEVRRFRETRQKNTNEEDDEVREAMTRARALRSQSEESASAFSADDLMSIDLAEQMANDSDDSISAATNKGRGRGRGRRGGRGQNSASRGGSQRGRADTGLETSTRSRNSKTAVSASRNMSIIDAFKSTRQQPSRNVTTKNYSEVIEVDESDVEEDIFPTTSKTDQRWSSTSSSKIMSQSQVSKGVDFESSEDDDDDPFMNTSSLRRNRR
B4: NPM3 (protein, UniProt O75607 2-178, looked up)
Nucleoplasmin-3: AAGTAAALAFLSQESRTRAGGVGGLRVPAPVTMDSFFFGCELSGHTRSFTFKVEEEDDAEHVLALTMLCLTEGAKDECNVVEVVARNHDHQEIAVPVANLKLSCQPMLSLDDFQLQPPVTFRLKSGSGPVRITGRHQIVTMSNDVSEEESEEEEEDSDEEEVELCPILPAKKQGGRP
B5: THYN1 (protein, UniProt Q9P016 1-225, looked up)
Thymocyte nuclear protein 1: MSRPRKRLAGTSGSDKGLSGKRTKTENSGEALAKVEDSNPQKTSATKNCLKNLSSHWLMKSEPESRLEKGVDVKFSIEDLKAQPKQTTCWDGVRNYQARNFLRAMKLGEEAFFYHSNCKEPGIAGLMKIVKEAYPDHTQFEKNNPHYDPSSKEDNPKWSMVDVQFVRMMKRFIPLAELKSYHQAHKATGGPLKNMVLFTRQRLSIQPLTQEEFDFVLSLEEKEPS
B6: SRRT (protein, UniProt Q9BXP5 2-876, looked up)
Serrate RNA effector molecule …: GDSDDEYDRRRRDKFRRERSDYDRSRERDERRRGDDWNDREWDRGRERRSRGEYRDYDRNRRERFSPPRHELSPPQKRMRRDWDEHSSDPYHSGYEMPYAGGGGGPTYGPPQPWGHPDVHIMQHHVLPIQARLGSIAEIDLGVPPPVMKTFKEFLLSLDDSVDETEAVKRYNDYKLDFRRQQMQDFFLAHKDEEWFRSKYHPDEVGKRRQEARGALQNRLRVFLSLMETGWFDNLLLDIDKADAIVKMLDAAVIKMEGGTENDLRILEQEEEEEQAGKPGEPSKKEEGRAGAGLGDGERKTNDKDEKKEDGKQAENDSSNDDKTKKSEGDGDKEEKKEDSEKEAKKSSKKRNRKHSGDDSFDEGSVSESESESESGQAEEEKEEAEEALKEKEKPKEEEWEKPKDAAGLECKPRPLHKTCSLFMRNIAPNISRAEIISLCKRYPGFMRVALSEPQPERRFFRRGWVTFDRSVNIKEICWNLQNIRLRECELSPGVNRDLTRRVRNINGITQHKQIVRNDIKLAAKLIHTLDDRTQLWASEPGTPPLPTSLPSQNPILKNITDYLIEEVSAEEEELLGSSGGAPPEEPPKEGNPAEINVERDEKLIKVLDKLLLYLRIVHSLDYYNTCEYPNEDEMPNRCGIIHVRGPMPPNRISHGEVLEWQKTFEEKLTPLLSVRESLSEEEAQKMGRKDPEQEVEKFVTSNTQELGKDKWLCPLSGKKFKGPEFVRKHIFNKHAEKIEEVKKEVAFFNNFLTDAKRPALPEIKPAQPPGPAQILPPGLTPGLPYPHQTPQGLMPYGQPRPPILGYGAGAVRPAVPTGGPPYPHAPYGAGRGNYDAFRGQGGYPGKPRNRMVRGDPRAIVEYRDLDAPDDVDFF

These molecules were tested on 3×MBT domain of L3MBTL1 (assay: Triple SILAC pull-down, 3xMBT/3xMBTD355N ratio (cytoplasmic, nuclear and chromatin fractions of 293T cells)). Conditions: SILAC ratio 3xMBT vs 3xMBTD355N pull-down, 293T cells; experiment with UNC0638 in heavy SILAC media; all values in log base 2.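 Also: proteins quantified with MaxQuant, requiring at least two unique peptides and quantification in both label directions, normalized to the mean of proteins from a digested loading control.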
Type: binding, human
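For Relative to UNC0638 Average in this document: mass spectrometry (Q-Exactive) SILAC quantitation, DMSO/UNC0638 ratio computed after subtracting 3×MBTD355N mutant pull-down background, only proteins with at least twofold 3×MBT over mutant signal considered.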
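For Relative to UNC0638 UNC Heavy in this document: mass spectrometry (Q-Exactive) SILAC quantitation, DMSO/UNC0638 ratio computed after subtracting 3×MBTD355N mutant pull-down background, only proteins with at least twofold 3×MBT over mutant signal considered.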
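For Relative to UNC0638 UNC Light in this document: mass spectrometry (Q-Exactive) SILAC quantitation, DMSO/UNC0638 ratio computed after subtracting 3×MBTD355N mutant pull-down background, only proteins with at least twofold 3×MBT over mutant signal considered.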

| Molecule | 3xMBT/D355N UNC Heavy [log base 2] |
| --- | --- |
| B1 | 2.44 |
| B2 | 2.16 |
| B3 | 1.35 |
| B4 | 2.70 |
| B5 | 2.42 |
| B6 | 2.15 |

Same assay, conditions: SILAC ratio 3xMBT vs 3xMBTD355N pull-down, 293T cells; experiment with UNC0638 in light SILAC media; all values in log base 2

| Molecule | 3xMBT/D355N UNC Light [log base 2] |
| --- | --- |
| B1 | 2.49 |
| B2 | 1.62 |
| B3 | 2.06 |
| B4 | 2.15 |
| B5 | 2.85 |
| B6 | 2.41 |

The molecules below were run against T1, G9a and GLP (assay: Triple SILAC pull-down after UNC0638 treatment of 293T cells, DMSO/UNC0638 ratio of protein captured by 3×MBT). Conditions: SILAC ratio DMSO relative to UNC0638, pull-down with 3xMBT; UNC0638 in heavy SILAC media; all values in log base 2.
Type: cell-based
Set-up: cells were treated for 24 hours with UNC0638 at 2.5 μM or DMSO vehicle control; endogenous in cells; host or cells: HEK 293T

| Relative to UNC0638 UNC Heavy [log base 2] | Molecule |
| --- | --- |
| 0.05 | B1 |
| 0.16 | B2 |
| 0.07 | B3 |
| 0.13 | B4 |
| −0.01 | B5 |
| 0.02 | B6 |

Same assay, conditions: SILAC ratio DMSO relative to UNC0638, pull-down with 3xMBT; UNC0638 in light SILAC media; all values in log base 2

| Relative to UNC0638 UNC Light [log base 2] | Molecule |
| --- | --- |
| 0.12 | B1 |
| −0.02 | B2 |
| 0.07 | B3 |
| 0.03 | B4 |
| 0.18 | B5 |
| 0.15 | B6 |

Same assay, conditions: average of UNC Light and UNC Heavy experiments; all values in log base 2

| Relative to UNC0638 Average [log base 2] | Molecule |
| --- | --- |
| 0.09 | B1 |
| 0.07 | B2 |
| 0.07 | B3 |
| 0.08 | B4 |
| 0.09 | B5 |
| 0.08 | B6 |
